The values that follow are results of earlier work, collected in publication PMC4487222.

For the series, the target named is CheY (Thermotoga maritima) (UniProt Q56312).
Chain of CheY (Thermotoga maritima) (Q56312 whole entry): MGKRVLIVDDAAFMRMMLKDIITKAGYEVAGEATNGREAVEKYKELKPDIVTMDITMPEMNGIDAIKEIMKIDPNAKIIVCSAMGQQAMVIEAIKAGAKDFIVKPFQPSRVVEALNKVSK

Chain of CheA (Q56310 whole entry): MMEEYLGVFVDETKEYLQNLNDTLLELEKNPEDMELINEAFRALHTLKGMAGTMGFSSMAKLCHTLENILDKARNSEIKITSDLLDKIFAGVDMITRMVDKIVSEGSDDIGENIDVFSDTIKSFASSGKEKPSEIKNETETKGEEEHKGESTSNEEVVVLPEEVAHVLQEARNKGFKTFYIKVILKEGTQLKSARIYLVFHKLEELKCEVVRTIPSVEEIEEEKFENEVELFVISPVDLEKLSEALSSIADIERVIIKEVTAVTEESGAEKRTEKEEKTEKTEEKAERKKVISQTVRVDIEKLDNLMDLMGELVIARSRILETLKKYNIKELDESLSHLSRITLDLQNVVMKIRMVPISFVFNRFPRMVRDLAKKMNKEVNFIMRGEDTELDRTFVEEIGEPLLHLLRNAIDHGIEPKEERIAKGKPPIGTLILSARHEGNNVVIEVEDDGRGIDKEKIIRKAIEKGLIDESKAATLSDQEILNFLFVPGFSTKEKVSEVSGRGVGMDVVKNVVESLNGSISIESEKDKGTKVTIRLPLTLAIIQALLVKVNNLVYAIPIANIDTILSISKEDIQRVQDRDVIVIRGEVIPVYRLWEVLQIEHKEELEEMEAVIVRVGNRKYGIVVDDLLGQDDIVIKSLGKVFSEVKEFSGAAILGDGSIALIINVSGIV

Broadly, the Kd is the concentration at which binding is half-saturated. As to CheA (from UniProt Q56310), the Kd was 200 nM.
